Results taken from patent publication US20240209065A1.

Assays:
Assay in all cases: cell-based or functional assay
[1] = molecular target: S protein of authentic SARS-CoV-2 G614 virus (SARS-CoV-2) (UniProt P0DTC2)
[2] = molecular target: S protein of Pangolin-GD on S-pseudotyped VSV (Pangolin-GD (clade 1b sarbecovirus))
[3] = molecular target: S protein of RaTG13 on S-pseudotyped VSV (RaTG13 (clade 1b sarbecovirus))

Substance: DXP-604 IgG (antibody)
- IC50, microneutralization assay with authentic virus [1]: 0.3 nM
- IC50, S-pseudotyped VSV neutralization assay [2]: 0.05 nM
- IC50, S-pseudotyped VSV neutralization assay [3]: 0.01 nM
